The values that follow are results of earlier work, collected in publication PMC3240149.

What is called Ki is the equilibrium dissociation constant of an inhibitor or competing ligand from its target.

Data set [1] addresses TACE (ADAM-17) (Homo sapiens) (UniProt P78536).
The next data set addresses MMP-3 (Homo sapiens) (UniProt P08254).
A further data set has as its target MMP-2 (Homo sapiens) (UniProt P08253).
Sequence of UniProt P08253 (P08253 110-660): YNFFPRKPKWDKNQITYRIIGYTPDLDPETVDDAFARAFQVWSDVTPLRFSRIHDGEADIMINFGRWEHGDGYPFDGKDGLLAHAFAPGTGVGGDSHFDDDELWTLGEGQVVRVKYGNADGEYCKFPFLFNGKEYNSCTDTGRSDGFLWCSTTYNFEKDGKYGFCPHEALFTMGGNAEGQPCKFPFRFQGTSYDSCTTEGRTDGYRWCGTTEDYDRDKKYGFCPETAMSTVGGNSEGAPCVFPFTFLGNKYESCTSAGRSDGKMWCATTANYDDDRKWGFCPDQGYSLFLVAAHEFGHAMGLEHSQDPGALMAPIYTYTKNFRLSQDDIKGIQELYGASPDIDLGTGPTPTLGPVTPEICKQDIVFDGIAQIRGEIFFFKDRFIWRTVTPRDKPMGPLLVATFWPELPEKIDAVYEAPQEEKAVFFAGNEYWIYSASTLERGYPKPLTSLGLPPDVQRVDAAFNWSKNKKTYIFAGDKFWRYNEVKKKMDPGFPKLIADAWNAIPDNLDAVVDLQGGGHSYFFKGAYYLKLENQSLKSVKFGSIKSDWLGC

Sequence of UniProt P08254 (P08254 100-477): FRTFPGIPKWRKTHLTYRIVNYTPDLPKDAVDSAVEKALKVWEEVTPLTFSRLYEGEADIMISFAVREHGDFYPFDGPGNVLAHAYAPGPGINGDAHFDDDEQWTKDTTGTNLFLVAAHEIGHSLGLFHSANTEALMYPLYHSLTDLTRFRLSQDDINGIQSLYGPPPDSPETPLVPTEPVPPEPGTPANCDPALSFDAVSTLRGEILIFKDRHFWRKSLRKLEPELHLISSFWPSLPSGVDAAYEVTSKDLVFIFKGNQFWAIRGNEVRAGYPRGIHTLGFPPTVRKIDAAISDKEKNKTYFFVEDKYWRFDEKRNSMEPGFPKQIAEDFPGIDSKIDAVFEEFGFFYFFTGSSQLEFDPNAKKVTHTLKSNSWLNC
Sequence of UniProt P78536 (P78536 215-671): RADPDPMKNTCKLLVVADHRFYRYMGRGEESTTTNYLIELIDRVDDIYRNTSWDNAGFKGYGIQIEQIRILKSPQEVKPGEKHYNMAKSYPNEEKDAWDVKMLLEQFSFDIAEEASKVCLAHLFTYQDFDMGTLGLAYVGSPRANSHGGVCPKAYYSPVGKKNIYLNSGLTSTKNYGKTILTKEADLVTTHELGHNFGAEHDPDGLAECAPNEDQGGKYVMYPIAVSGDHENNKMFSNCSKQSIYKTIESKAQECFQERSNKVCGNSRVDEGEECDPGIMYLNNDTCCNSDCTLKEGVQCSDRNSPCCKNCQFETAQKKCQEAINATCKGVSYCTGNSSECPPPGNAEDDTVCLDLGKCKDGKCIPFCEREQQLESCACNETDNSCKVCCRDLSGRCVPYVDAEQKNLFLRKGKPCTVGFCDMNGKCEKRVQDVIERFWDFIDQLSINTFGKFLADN

Turning to TIMP-3 (from UniProt P35625), the Ki in data set [1] was 0.182 nM; with MMP-3 (Homo sapiens) it was 67 nM.
For the substance TIMP-2 (from UniProt P16035), in the data set with MMP-2 (Homo sapiens), the Ki was 1000 nM.
